Measured values: US20240125793A1

Assays:
5c1-I-E^k (murine) [1] = molecular target: 5c1-I-E^k (murine) (UniProt P04224); assay: cell-based or functional assay
[2] = molecular target: MCC-I-E^k (soluble I-Ek exchanged with the MCC peptide) (murine) (UniProt P04224); assay: cell-based or functional assay
5c1-I-E^k (murine) [3] = molecular target: 5c1-I-E^k (murine) (UniProt P04224); assay: SPR (Biacore T100), refolded TCR over peptide-exchanged biotinylated I-Ek on SA chip, equilibrium
5c3-I-E^k (murine) = 5c3-I-E^k (murine) (UniProt P04224); assay: as above
[4] = molecular target: MCC-I-E^k (soluble I-Ek exchanged with the MCC peptide) (murine) (UniProt P04224); assay: as above

## 5cc7 TCR
5c1-I-E^k (murine) [1]
  signaling potency (EC50): 1.5 µM
[2]
  signaling potency (EC50): 0.0084 µM
5c1-I-E^k (murine) [3]
  Kd: 115 µM
5c3-I-E^k (murine)
  Kd: 62 µM
[4]
  Kd: 41 µM
